Experiments:
Rpn1 = target: T1, Rpn1 (S. cerevisiae, UniProt P38764 1-993); test: cryo-EM structure
T1 sequence: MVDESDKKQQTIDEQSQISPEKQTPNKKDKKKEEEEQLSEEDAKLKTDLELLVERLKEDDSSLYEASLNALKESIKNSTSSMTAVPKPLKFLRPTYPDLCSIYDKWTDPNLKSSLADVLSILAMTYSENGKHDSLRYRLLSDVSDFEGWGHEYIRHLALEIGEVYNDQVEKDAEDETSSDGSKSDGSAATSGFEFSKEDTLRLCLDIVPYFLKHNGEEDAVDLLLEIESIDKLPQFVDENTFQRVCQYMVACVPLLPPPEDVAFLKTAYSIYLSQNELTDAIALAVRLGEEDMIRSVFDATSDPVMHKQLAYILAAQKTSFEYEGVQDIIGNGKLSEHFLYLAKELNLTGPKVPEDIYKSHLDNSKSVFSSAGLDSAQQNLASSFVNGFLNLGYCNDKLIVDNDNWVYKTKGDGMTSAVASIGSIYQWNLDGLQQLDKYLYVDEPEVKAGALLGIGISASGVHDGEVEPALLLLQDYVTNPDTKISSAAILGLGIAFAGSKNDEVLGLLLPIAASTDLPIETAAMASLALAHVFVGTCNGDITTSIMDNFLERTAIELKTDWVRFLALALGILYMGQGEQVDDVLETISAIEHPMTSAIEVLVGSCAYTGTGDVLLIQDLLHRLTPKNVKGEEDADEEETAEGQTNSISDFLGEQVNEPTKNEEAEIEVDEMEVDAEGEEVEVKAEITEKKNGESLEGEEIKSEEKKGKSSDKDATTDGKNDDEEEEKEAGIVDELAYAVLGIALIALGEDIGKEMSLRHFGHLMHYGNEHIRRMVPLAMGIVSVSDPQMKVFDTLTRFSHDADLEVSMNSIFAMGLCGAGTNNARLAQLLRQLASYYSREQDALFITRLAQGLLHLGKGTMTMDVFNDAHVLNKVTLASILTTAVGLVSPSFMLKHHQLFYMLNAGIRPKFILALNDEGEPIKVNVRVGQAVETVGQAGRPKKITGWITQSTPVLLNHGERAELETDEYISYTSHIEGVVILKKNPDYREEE

Rpt2 = Rpt2 (S. cerevisiae, UniProt P40327 1-437); test: cryo-EM structure
Sequence of Rpt2 (P40327 whole entry): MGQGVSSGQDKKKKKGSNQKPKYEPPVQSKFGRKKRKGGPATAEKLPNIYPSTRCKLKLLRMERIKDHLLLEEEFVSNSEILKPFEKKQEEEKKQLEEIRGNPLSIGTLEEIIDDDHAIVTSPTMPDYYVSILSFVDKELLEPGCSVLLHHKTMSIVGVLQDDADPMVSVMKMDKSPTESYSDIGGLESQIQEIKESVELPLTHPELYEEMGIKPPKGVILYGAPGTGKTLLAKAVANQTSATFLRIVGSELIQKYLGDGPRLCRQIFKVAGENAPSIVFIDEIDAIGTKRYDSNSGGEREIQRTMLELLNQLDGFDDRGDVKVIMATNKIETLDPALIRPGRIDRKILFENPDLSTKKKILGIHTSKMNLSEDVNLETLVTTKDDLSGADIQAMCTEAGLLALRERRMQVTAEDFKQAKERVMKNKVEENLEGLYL

binding result (Rpn1): binds
binding result (Rpt2): binds
B1: 20S core subunit α4 (natural protein)
chain: MSGYDRALSIFSPDGHIFQVEYALEAVKRGTCAVGVKGKNCVVLGCERRSTLKLQDTRITPSKVSKIDSHVVLSFSGLNADSRILIEKARVEAQSHRLTLEDPVTVEYLTRYVAGVQQRYTQSGGVRPFGVSTLIAGFDPRDDEPKLYQTEPSGIYSSWSAQTIGRNSKTVREFLEKNYDRKEPPATVEECVKLTVRSLLEVVQTGAKNIEITVVKPDSDIVALSSEEINQYVTQIEQEKQEQQEQDKKKKSNH

Source: PMC3285539 (Nature, 2012)
